Data reported in publication PMC8093829.

T1: recombinant L-asparaginase refolded from E. coli inclusion bodies, P00805
T1 chain: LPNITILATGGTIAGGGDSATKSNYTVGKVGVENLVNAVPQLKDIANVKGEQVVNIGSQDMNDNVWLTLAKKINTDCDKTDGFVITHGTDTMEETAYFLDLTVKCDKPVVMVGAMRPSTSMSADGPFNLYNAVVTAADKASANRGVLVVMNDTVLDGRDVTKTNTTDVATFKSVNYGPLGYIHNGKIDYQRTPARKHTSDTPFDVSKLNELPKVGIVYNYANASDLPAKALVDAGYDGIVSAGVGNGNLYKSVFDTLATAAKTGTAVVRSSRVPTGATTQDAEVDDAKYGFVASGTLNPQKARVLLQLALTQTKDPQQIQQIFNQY

T2: commercial L-asparaginase 5,000 IU/ml, Bionase 5K, P00805
T2 chain: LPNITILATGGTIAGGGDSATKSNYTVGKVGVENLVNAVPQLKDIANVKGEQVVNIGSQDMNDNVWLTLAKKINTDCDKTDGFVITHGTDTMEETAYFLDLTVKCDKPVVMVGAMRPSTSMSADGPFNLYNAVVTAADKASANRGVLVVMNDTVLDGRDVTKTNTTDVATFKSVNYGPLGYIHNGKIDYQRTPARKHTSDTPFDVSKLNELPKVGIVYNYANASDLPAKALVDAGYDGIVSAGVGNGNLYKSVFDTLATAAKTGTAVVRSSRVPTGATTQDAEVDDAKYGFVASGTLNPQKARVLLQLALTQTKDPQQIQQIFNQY


Key:
[1] = molecular target: T1, recombinant L-asparaginase refolded …; assay: SEC; Superdex 200 PG 16/600, equilibrated with 20 mM Tris-HCl, 10% (v/v) glycerol, pH 8.5, eluted in 50 mM Tris-HCl, 0.5 ml/min; DEAE-purified, concentrated refolded L-asparaginase; conditions: remark: other sources report otherwise
[2] = molecular target: T2, commercial L-asparaginase 5,000 IU/ml, …; assay: SEC; HPLC, TSK gel G3000SWxl, 20 mM Tris-HCl and 100 mM NaCl; commercial L-asparaginase concentrated to 2 mg/ml; conditions: remark: other sources report otherwise

stoichiometry N [1] | stoichiometry N [2] | tetrameric population (%) [2] | Binder
4 |  |  | recombinant L-asparaginase refolded from E. coli inclusion bodies, P00805 23-348 (enzyme) LPNITILATGGTIAGGGDSATKSNYTVGKVGVENLVNAVPQLKDIANVKGEQVVNIGSQDMNDNVWLTLAKKINTDCDKTDGFVITHGTDTMEETAYFLDLTVKCDKPVVMVGAMRPSTSMSADGPFNLYNAVVTAADKASANRGVLVVMNDTVLDGRDVTKTNTTDVATFKSVNYGPLGYIHNGKIDYQRTPARKHTSDTPFDVSKLNELPKVGIVYNYANASDLPAKALVDAGYDGIVSAGVGNGNLYKSVFDTLATAAKTGTAVVRSSRVPTGATTQDAEVDDAKYGFVASGTLNPQKARVLLQLALTQTKDPQQIQQIFNQY
 | 4 | 81.4% | commercial L-asparaginase 5,000 IU/ml, Bionase 5K, P00805 23-348 (enzyme) LPNITILATGGTIAGGGDSATKSNYTVGKVGVENLVNAVPQLKDIANVKGEQVVNIGSQDMNDNVWLTLAKKINTDCDKTDGFVITHGTDTMEETAYFLDLTVKCDKPVVMVGAMRPSTSMSADGPFNLYNAVVTAADKASANRGVLVVMNDTVLDGRDVTKTNTTDVATFKSVNYGPLGYIHNGKIDYQRTPARKHTSDTPFDVSKLNELPKVGIVYNYANASDLPAKALVDAGYDGIVSAGVGNGNLYKSVFDTLATAAKTGTAVVRSSRVPTGATTQDAEVDDAKYGFVASGTLNPQKARVLLQLALTQTKDPQQIQQIFNQY
